Reference: publication PMC3613427

Legend:
[1] = biological target: formate channel FocA from Vibrio cholerae (Vibrio cholerae); experiment: SEC-MALS
[2] = biological target: formate channel FocA from Vibrio cholerae (Vibrio cholerae); experiment: crystal structure

“formate channel FocA from Vibrio cholerae (natural protein)” showed a stoichiometry N [1] of 5 and a stoichiometry N [2] of 5.
